B1: SH2 domain-containing protein 1A, O60880 (parent)
chain: MDAVAVYHGKISRETGEKLLLATGLDGSYLLRDSESVPGVYCLCVLYHGYIYTYRVSQTETGSWSAETAPGVHKRYFRKIKNLISAFQKPDQGIVIPLQYPVEKKSSARSTQGTTGIREDPDVCLKAP

Variants of B1 are the subject of the data set. To be noted: Homo sapiens; pH 7.4; Thermal; CD; Phosphate buffer saline; structure 1KA6; whole UniProt chain shown.

Consider L31P, for which the Tm amounted to 45.6 °C and the “change of melting temperature, mutant - wild type (higher = more stable)” value was -12.2 °C.
The corresponding values for F87S are 50.5 °C and -7.3 °C.
The corresponding values for G93D are 49.1 °C and -8.7 °C.
On to Y54C, for which the melting temperature (Tm) amounted to 48.2 °C and the “change of melting temperature, mutant - wild type (higher = more stable)” value was -9.6 °C.
For E67D, in that order: 44.2 °C and -13.6 °C.

As a reminder, the Tm is the temperature at which the thermal transition is half complete.

For the origin of these results see FireProtDB (doi:10.1021/bi034798l).
